# B1: Mycoplasma pneumoniae enolase (enzyme)
# chain: MSAQTGTDLFKIADLFAYQVFDSRGFPTVACVVKLASGHTGEAMVPSGASTGEKEAIELRDGDPKAYFGKGVSQAVQNVNQTIAPKLIGLNATDQAAIDALMIQLDGTPNKAKLGANAILAVSLAVAKAAASAQKTSLFKYLANQVMGLNKTEFILTVPMLNVINGGAHADNNIDFQEFMIMPLGANSMHQALKMASETFHALQKLLKQRGLNTNKGDEGGFAPNLKLAEEALDLMVEAIKAAGYQPGSDIAIALDVAASEFYDDTTKRYVFKKGIKAKILDEKEWSLTTAQMIAYLKKLTEQYPIISIEDGLSEHDWEGMETLTKTLGQHIQIVGDDLYCTNPAIAEKGVAHKATNSILIKLNQIGTLTETIKAINIAKDANWSQVISHRSGETEDTTIADLAVAACTGQIKTGSMSRSERIAKYNRLLQIELELGNNAKYLGWNTFKNIKPQKA
# notes: also called Mp Eno; M. pneumoniae Eno
# B2: Mycoplasma bovis enolase (enzyme)
# chain: MPIIERIQAREILDSRGNPTVQVEVTTDYEITGVANVPSGASTGSREALELRDKGTKYEGNWFGGKGVMTAVDNVNEKIAPELIGMSVFDQRAIDKLMIELDGTATKSKLGANAILGVSLAVARAAATELGMPLYRYIGGANAHTLPLPMLNVLNGGEHASNTVDFQEFMIMPVGAKSLREALQMANKVFHNLAKLLKKAGYGTQVGDEGGFAPNCKSHEEVLDYLVEAIKVAGYTPATSGKNAIAIALDAACSELYDENSKKYTFKKLKQAIAEKRSGFEHLDNVKLEYTTDELIEYFGKLIDKYPIISIEDGLAESDWEGFAKMTAKFGSKVQIVGDDLTVTNPKLLEKAIEQKSMNAILIKLNQIGSLSETMDAINKAQKANMACVVSHRSGETEDTTIADLAVAFNTGQIKTGSMSRTDRIAKYNRLLVIEEELGEQSEFEGSKAFYNIK
# notes: also called Mb Eno; M. bovis Eno
# Target: the molecule itself
# Assay: native gel or EMSA
row,Protein,stoichiometry N
1,B1,2
2,B2,8
